This test deals with T1, STING protein (SPR) (human, UniProt Q86WV6 1-379).
T1 construct: STING, protein injected as analyte; Probably the recombinant protein from E. coli of the GST pull-down
The test is described as follows: SPR; Biacore 8K; CAD captured on sensor chip CM5; STING injected at increasing concentrations for 2 min, dissociation 2 min in running buffer; equilibrium constants by the evaluation software. As to conditions: both partners purified. (In SPR one partner is held on a chip, and binding of the other changes the refractive index at the surface.)

These results are taken from PMC12375107 (Cell Death & Disease, 2025).

As a reminder, the Kd is the constant that tells how readily two partners part at equilibrium.

T1 sequence (Q86WV6 whole entry): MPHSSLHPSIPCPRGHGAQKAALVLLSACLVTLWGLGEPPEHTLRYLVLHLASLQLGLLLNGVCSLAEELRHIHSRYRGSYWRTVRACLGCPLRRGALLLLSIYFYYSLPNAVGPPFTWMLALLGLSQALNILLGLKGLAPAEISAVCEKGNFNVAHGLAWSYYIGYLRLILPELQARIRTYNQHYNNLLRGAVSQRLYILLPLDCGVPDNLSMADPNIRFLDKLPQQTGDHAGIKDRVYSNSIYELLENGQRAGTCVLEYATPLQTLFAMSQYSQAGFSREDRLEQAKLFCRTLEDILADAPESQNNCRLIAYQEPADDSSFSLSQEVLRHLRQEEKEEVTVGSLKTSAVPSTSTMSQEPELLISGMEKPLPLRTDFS

B1: CAD protein (SPR) (enzyme, human, UniProt O76075 1-338, looked up)
chain: MLQKPKSVKLRALRSPRKFGVAGRSCQEVLRKGCLRFQLPERGSRLCLYEDGTELTEDYFPSVPDNAELVLLTLGQAWQGYVSDIRRFLSAFHEPQVGLIQAAQQLLCDEQAPQRQRLLADLLHNVSQNIAAETRAEDPPWFEGLESRFQSKSGYLRYSCESRIRSYLREVSSYPSTVGAEAQEEFLRVLGSMCQRLRSMQYNGSYFDRGAKGGSRLCTPEGWFSCQGPFDMDSCLSRHSINPYSNRESRILFSTWNLDHIIEKKRTIIPTLVEAIKEQDGREVDWEYFYGLLFTSENLKLVHIVCHKKTTHKLNCDPSRIYKPQTRLKRKQPVRKRQ
notes: Probably the recombinant protein from E. coli of the GST pull-down
Take B1: the Kd came to 993 nM.
